Experimental data reported in the supplement of paper PMC10567573.

B1: GOLPH3 (parent)
chain: FAPLLDEQYDLATKRVRQLLDLDP

Variants of: B1
Experiment: protein stability index of a GFP-peptide fusion (GPS, HEK-293T) (PSI 1-6); higher = more stable
Settings: c terminus: a fixed tail appended
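Also: lentivirally expressed fusions sorted by FACS into six bins by GFP to DsRed ratio, PSI derived from sequencing read proportions per bin multiplied by bin number.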

Protein stability index of substitutions, site by site:
P3: W 2.16; R 1.87; G 2.59; S 2.34; T 2.88; I 1.68; L 1.6; K 2.44; V 2.38; D 2.79; F 1.52; E 3.18; Q 2.05; N 3.18; A 2.34; Y 2.28; H 3.07; C 2.44; M 1.78
F1: V 3.06; M 3.58; K 3.61; I 3.11; E 4.59; Y 2.39; S 4.39; C 2.5; P 4.59; Q 4.03; G 4.41; T 4.11; W 2.46; D 4.39; L 3.67; H 4; N 3.86
D6: S 2.26; H 1.48; P 2.81; G 1.45; A 2.38; M 2.25; V 1.75; E 2.22; K 2.4; I 1.46; N 1.54; W 1.88; C 2.25; Y 2.03; L 1.83; T 1.76; F 1.49; Q 1.42
L4: H 2.31; N 3.2; P 2.35; M 1.76; T 1.72; G 2.27; D 3.39; C 1.67; V 3.17; W 2.28; Y 2.65; R 1.43; I 2.33; F 2.01; K 2.34; Q 2.12; A 1.81; E 2.79; S 1.75
E7: A 1.49; R 2.79; C 1.98; D 2.02; G 1.86; L 1.55; H 1.76; N 1.91; S 2.12; I 1.65; F 1.91; M 1.9; P 2.12; T 1.86; Y 1.48; K 1.87; V 1.89; Q 2.66; W 2.56
Y9: D 2.98; M 2.46; K 2.4; N 2.57; I 2.26; R 2.2; V 1.24; T 2.45; E 3.5; F 2.75; A 2.9; G 2.24; W 2.06; C 2.9; P 2.59; H 2.49; S 2.96; Q 2.64; L 2.15
L5: V 2.21; K 2.39; C 1.82; I 1.78; H 2.42; T 1.95; G 2.24; D 3.74; S 1.85; P 2.21; R 1.18; W 2.07; N 2.97; F 2.6; E 3.7; Y 2.45; Q 2.45; A 2.34; M 2.38
A2: L 2.2; W 1.92; M 2.03; V 2.11; N 3.01; T 2.71; K 3.14; I 1.75; H 2.48; C 1.85; F 2.03; D 3.71; S 3.46; P 3.45; G 3.19; Q 3.37; E 3.13; Y 2.43
Q8: E 2.64; W 1.32; C 2.1; G 2.08; H 2.04; M 1.88; L 1.95; P 1.74; S 2.24; R 1.39; T 2.64; A 2.29; D 2.96; F 1.5; Y 2.33; K 1.75; N 1.84
D10: C 2.54; E 2.36
